The target of series [1] is T1, RIG-I full length (wt) (human, UniProt O95786 1-925).
T1 sequence: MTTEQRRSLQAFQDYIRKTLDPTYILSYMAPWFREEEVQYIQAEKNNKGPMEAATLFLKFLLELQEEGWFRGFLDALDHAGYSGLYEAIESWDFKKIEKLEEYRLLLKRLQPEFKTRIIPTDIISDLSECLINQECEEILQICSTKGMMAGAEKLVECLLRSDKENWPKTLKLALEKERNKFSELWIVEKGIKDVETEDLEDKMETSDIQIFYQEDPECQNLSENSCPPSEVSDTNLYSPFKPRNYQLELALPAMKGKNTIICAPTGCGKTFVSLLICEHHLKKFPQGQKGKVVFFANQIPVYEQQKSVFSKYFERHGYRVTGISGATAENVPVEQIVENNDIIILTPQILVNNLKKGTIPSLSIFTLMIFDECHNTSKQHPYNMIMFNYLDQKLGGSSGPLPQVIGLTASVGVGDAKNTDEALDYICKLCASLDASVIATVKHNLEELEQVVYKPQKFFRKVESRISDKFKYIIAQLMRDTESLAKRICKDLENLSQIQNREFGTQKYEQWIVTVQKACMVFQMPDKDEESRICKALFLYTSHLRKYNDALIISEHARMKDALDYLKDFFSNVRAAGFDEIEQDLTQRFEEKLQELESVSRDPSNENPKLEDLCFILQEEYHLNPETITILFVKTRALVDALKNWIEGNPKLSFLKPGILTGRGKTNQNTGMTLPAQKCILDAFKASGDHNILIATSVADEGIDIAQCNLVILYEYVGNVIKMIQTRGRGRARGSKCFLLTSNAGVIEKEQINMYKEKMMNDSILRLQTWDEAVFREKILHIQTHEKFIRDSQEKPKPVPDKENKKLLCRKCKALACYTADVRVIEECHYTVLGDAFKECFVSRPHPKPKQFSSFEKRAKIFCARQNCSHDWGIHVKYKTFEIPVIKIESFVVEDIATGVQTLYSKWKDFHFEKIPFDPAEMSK
The series can be described thus: ATPase titration (Kd,app); ATP, 37 C; Buffer A (composition not in the material; 150 mM NaCl stated for some supplementary assays); anisotropy at 15 C with 1-2 nM (blunt) or 40 nM (non-blunt) labell. The settings on record: protein: recombinant, tags: N-terminal SUMO fusion construct, His (Ni-NTA).

Series [2] concerns the target T1, RIG-I full length (wt). The series can be described thus: fluorescence anisotropy; no ATP, 15 C; Buffer A (composition not in the material; 150 mM NaCl stated for some supplementary assays); anisotropy at 15 C with 1-2 nM (blunt) or 40 nM (non-blunt) labell. The conditions noted are these: protein: recombinant, tags: N-terminal SUMO fusion construct, His (Ni-NTA). (In fluorescence polarisation assays a small probe gives low polarisation when free and higher when bound to something large.)

Series [3] concerns the target T2, Helicase-RD (RIG-I lacking CARDs) (human, UniProt O95786 232-925).
T2 sequence: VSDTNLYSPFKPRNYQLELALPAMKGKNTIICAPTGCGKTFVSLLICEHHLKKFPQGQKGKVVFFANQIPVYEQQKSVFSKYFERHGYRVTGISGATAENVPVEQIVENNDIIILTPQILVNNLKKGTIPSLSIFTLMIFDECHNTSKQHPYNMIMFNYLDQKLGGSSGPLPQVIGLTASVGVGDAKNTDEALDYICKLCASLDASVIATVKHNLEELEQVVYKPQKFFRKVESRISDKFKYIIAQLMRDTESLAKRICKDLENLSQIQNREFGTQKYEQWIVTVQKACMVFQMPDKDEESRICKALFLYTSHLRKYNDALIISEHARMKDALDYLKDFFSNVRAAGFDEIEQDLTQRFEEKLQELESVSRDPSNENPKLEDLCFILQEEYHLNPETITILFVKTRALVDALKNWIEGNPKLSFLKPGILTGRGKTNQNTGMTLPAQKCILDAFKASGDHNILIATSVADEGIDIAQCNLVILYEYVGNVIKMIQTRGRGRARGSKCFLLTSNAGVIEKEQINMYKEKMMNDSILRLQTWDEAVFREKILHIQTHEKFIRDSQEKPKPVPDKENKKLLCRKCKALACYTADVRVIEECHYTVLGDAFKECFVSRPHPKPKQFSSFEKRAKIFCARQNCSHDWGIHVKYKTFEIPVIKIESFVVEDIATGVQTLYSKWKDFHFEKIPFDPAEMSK
Nature of the series: ATPase titration (Kd,app); ATP, 15 C; Buffer A (composition not in the material; 150 mM NaCl stated for some supplementary assays); anisotropy at 15 C with 1-2 nM (blunt) or 40 nM (non-blunt) labell. The settings on record: protein: recombinant, tags: N-terminal SUMO fusion construct, His (Ni-NTA).

The target in series [4] is T3, RIG-I R109A/L110A (CARD2-Hel2i interface mutant) (human, UniProt O95786 1-925, R109A;L110A).
T3 sequence: T1 sequence with R109A, L110A
The series is described as above. The conditions noted are these: protein: recombinant, tags: N-terminal SUMO fusion construct, His (Ni-NTA).

The target of series [5] is T2, Helicase-RD (RIG-I lacking CARDs). Nature of the series: ATPase titration (Kd,app); ATP, 37 C; Buffer A (composition not in the material; 150 mM NaCl stated for some supplementary assays); anisotropy at 15 C with 1-2 nM (blunt) or 40 nM (non-blunt) labell. The conditions noted are these: protein: recombinant; tags: N-terminal SUMO fusion construct, His (Ni-NTA); single strand.

The target of series [6] is T1, RIG-I full length (wt). Nature of the series: ATPase titration (Kd,app); ATP, 150 mM NaCl, 37 C; Buffer A (composition not in the material; 150 mM NaCl stated for some supplementary assays); anisotropy at 15 C with 1-2 nM (blunt) or 40 nM (non-blunt) labell. The settings on record: protein: recombinant, tags: N-terminal SUMO fusion construct, His (Ni-NTA).
Series [7] concerns the target T1, RIG-I full length (wt). Nature of the series: ATPase titration (Kd,app); ATP, 15 C; Buffer A (composition not in the material; 150 mM NaCl stated for some supplementary assays); anisotropy at 15 C with 1-2 nM (blunt) or 40 nM (non-blunt) labell. The settings on record: protein: recombinant, tags: N-terminal SUMO fusion construct, His (Ni-NTA), label: fluorescein on strand 2 in fluorescence assays (5' for anisotropy, 3' for intensity), none in ATPase assays.

Series [8] deals with T4, RIG-I C-terminal repressor domain (RD) (human, UniProt O95786 801-925).
T4 sequence: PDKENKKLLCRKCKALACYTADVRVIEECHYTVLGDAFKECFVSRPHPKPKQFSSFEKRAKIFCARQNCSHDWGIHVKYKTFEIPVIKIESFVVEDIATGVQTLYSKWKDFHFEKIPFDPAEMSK
The series can be described thus: fluorescence anisotropy; no ATP, 15 C; Buffer A (composition not in the material; 150 mM NaCl stated for some supplementary assays); anisotropy at 15 C with 1-2 nM (blunt) or 40 nM (non-blunt) labell. The settings on record: protein: recombinant; tags: N-terminal SUMO fusion construct, His (Ni-NTA); label: fluorescein on strand 2 in fluorescence assays; 3' overhangs 2 nt at both ends, 8 bp.

The target of series [9] is T1, RIG-I full length (wt). The series can be described thus: ATPase titration (Kd,app); ATP, 15 C; Buffer A (composition not in the material; 150 mM NaCl stated for some supplementary assays); anisotropy at 15 C with 1-2 nM (blunt) or 40 nM (non-blunt) labell. The settings on record: protein: recombinant; tags: N-terminal SUMO fusion construct, His (Ni-NTA); label: fluorescein on strand 2 in fluorescence assays; 3' overhangs 2 nt at both ends, 8 bp.

Series [10] deals with T1, RIG-I full length (wt). Nature of the series: ATPase titration (Kd,app); ATP, 15 C; same as Kd without ATP; Buffer A (composition not in the material; 150 mM NaCl stated for some supplementary assays); anisotropy at 15 C with 1-2 nM (blunt) or 40 nM (non-blunt) labell. The settings on record: protein: recombinant, tags: N-terminal SUMO fusion construct, His (Ni-NTA), none in ATPase assays.

Series [11] addresses T2, Helicase-RD (RIG-I lacking CARDs). Nature of the series: stopped-flow kinetics (koff/kon); 15 C; koff 1.5e-3 s-1, kon 6e8 M-1 s-1; Buffer A (composition not in the material; 150 mM NaCl stated for some supplementary assays); anisotropy at 15 C with 1-2 nM (blunt) or 40 nM (non-blunt) labell. The conditions noted are these: protein: recombinant, tags: N-terminal SUMO fusion construct, His (Ni-NTA), none in ATPase assays.

The mark [12] stands for this setting: label: 5' fluorescein on strand 2 in fluorescence assays, 5' overhangs 2 nt at both ends, 8 bp.
Setting [13] is: hairpin with 5-nt U overhangs at both 5' and 3' ends.
The mark [14] stands for this setting: label: fluorescein on strand 2 in fluorescence assays, 3' overhangs 2 nt at both ends, 8 bp.
Setting [15] is: label: fluorescein on strand 2 in fluorescence assays (5' for anisotropy, 3' for intensity), none in ATPase assays, blunt.

Where a chain is given by its changes, count along the chain named.

B1: 5'OH HP (structured_RNA)
RNA: GAAUAUAAUAGUGAUAUUAUAUUC
B1: the Kd with RIG-I full length (wt) [1] (hairpin, blunt) stood at 39 ± 4 nM.

B2: 5'OH 5'ovg RNA (dsRNA)
RNA 1: CGUGAGACAU
RNA 2: UCAUGUCUCA
For B2, the Kd with RIG-I full length (wt) [2] (setting [12]) is around 450 nM; in series [3] (setting [12]), around 1.5 nM; in series [4] (setting [12]) it was 64 ± 7 nM.

B3: dsRNA stem (hairpin with two overhangs) (structured_RNA)
RNA: UUUUUGAAUAUAAUAGUGAUAUUAUAUUCUUUUU
As to B3, the Kd is around 450 nM in the series with RIG-I full length (wt) [2] (setting [13]), 0.6 ± 0.4 nM in [3] (setting [13]), 53 ± 9 nM in series [4] (setting [13]) and 629 ± 165 nM with RIG-I full length (wt) [1] (setting [13]).

B4: 5'OH ss10 RNA (ssRNA)
RNA: CGUGAGACAU
With B4, the Kd in [5] was 1600 ± 500 nM.

B5: 5'OH 3'ovg RNA (dsRNA)
RNA 1: CGUGAGACAU
RNA 2: GUCUCACGUA
Take B5: the Kd in [3] (setting [14]) was around 1.5 nM; in series [4] (setting [14]) it was 121 ± 14 nM.

B6: 5'ppp HP (structured_RNA)
RNA: GAAUAUAAUAGUGAUAUUAUAUUC
modifications: 5'-triphosphate
Take B6: in the series with RIG-I full length (wt) [1] (hairpin, blunt), the Kd was 6 ± 0.7 nM.

B7: 5'ppp 5'ovg RNA (dsRNA)
RNA 1: CGUGAGACAU
RNA 2: UCAUGUCUCA
modifications: 5'-triphosphate on strand 1
On to B7, for which the Kd in [3] (setting [12]) is around 0.1 nM; in series [4] (setting [12]), 43 ± 5 nM.

B8: 5'ppp RNA 3'F (dsRNA)
RNA 1: CGUGAGACAU
RNA 2: AUGUCUCACG
modifications: 5'-triphosphate on strand 1
As for B8, in the series with RIG-I full length (wt) [6] (label: 3' fluorescein on strand 2), the Kd amounted to 73 ± 18 nM.

B9: 5'ppp ss10 RNA (ssRNA)
RNA: CGUGAGACAU
modifications: 5'-triphosphate
As for B9, the Kd in series [5] was 500 ± 100 nM.

B10: 5'OH RNA (10-bp blunt) (dsRNA)
RNA 1: CGUGAGACAU
RNA 2: AUGUCUCACG
In the case of B10, the binding signal with RIG-I full length (wt) [7] is ~2.5 fold Kd,app/Kd without ATP. Besides, the figures for the Kd (with RIG-I full length (wt) [2] (setting [15]); in series [3] (setting [15]); in [4] (setting [15])) were 6 ± 0.4 nM, 0.07 nM and 0.2 ± 0.3 nM, respectively.

B11: 5'ppp 3'ovg RNA (dsRNA)
RNA 1: CGUGAGACAU
RNA 2: GUCUCACGUA
modifications: 5'-triphosphate on strand 1
Regarding B11, the Kd is 165 ± 2 nM in series [8], 3 ± 0.4 nM in the series with RIG-I full length (wt) [2] (setting [14]), around 0.1 nM in series [3] (setting [14]) and 16 ± 4 nM in series [4] (setting [14]). Besides, in the series with RIG-I full length (wt) [9], the binding signal is ~16 fold Kd,app/Kd without ATP.

B12: 5'ppp RNA (10-bp blunt) (dsRNA)
RNA 1: CGUGAGACAU
RNA 2: AUGUCUCACG
modifications: 5'-triphosphate on strand 1
B12: the binding signal with RIG-I full length (wt) [10] was 1 fold Kd,app/Kd without ATP. Moreover, the Kd came to 0.0025 nM in series [11]; 0.4 ± 0.2 nM with RIG-I full length (wt) [2] (none in ATPase assays, blunt); 0.1 ± 0.1 nM in [4] (none in ATPase assays, blunt); 90 ± 29 nM with RIG-I full length (wt) [6] (none in ATPase assays).

The record behind these values is paper PMC4737149, “The autoinhibitory CARD2-Hel2i Interface of RIG-I governs RNA selection”.
